Measurements taken from the RNAGym collection of RNA variant scans (doi:10.1021/acssynbio.7b00057).

B1: Pistol ribozyme (parent)
chain: GGGUCGUUGUUCCAUAAUCGCGUGGAUAUGGCACGCAAGUUUCUACCGGGCACCGUAAAUGUCCGACUGGAGCCGUUCGGGCGGCUAUAAACAGACCUCAGGCCCGAAGCGUGGCGGCACCUGCCGCCGGUGGUAAAAAAGAUCGGAAGAGCACACGUCU

Variants of: B1
Assay: aptazyme ON/OFF ratio, guanine; higher = stronger switching; co-transcriptional cleavage with and without guanine

Row | Variant | aptazyme ON/OFF ratio
1 | G9C U10A U11A | 2.14
2 | G9C U10A U11G | 2.06
3 | G9A U10C C12U C13U | 1.34
4 | G9A U10C C12U C13G | 1.27
5 | G9A U10C C12U C13A | 1.38
6 | G9A U10G U11A C12U C13A | 1.21
7 | G9A U10G U11A C12U C13G | 1.2
8 | G9A U10G U11A C12U C13U | 1.24
9 | G9C C12A | 1.38
10 | G9C C12G | 1.35
11 | G9C C12U | 1.07
12 | G9A U10G U11C C12U C13A | 1.26
13 | G9A U10G U11C C12U C13G | 1.22
14 | G9A U10G U11C C12U C13U | 1.4
15 | G9A U11A C12U C13G | 1.33
16 | G9A U11A C12U C13A | 1.37
17 | G9A U11A C12U C13U | 1.91
18 | G9A U11C C12U | 1.35
19 | G9A U11C C12A | 1.38
20 | G9A U11C C12G | 1.45
21 | G9C U10A C12U | 1.6

Row | Variant | aptazyme ON/OFF ratio
22 | G9C U10A C12G | 1.22
23 | G9C U10A C12A | 1.81
24 | G9A U11A C12U | 1.83
25 | G9A U11A C12G | 1.51
26 | G9A U11A C12A | 1.68
27 | G9A U10C U11C C13A | 1.02
28 | G9A U10C U11C C13U | 1.01
29 | G9A U10C U11C C13G | 1.07
30 | G9A U11A C13G | 1.1
31 | G9A U11A C13A | 1.23
32 | G9A U11A C13U | 1.34
33 | G9A U10C U11G C12A C13G | 1.3
34 | G9A U10C U11G C12A C13U | 1.21
35 | G9A U10C U11G C12A C13A | 1.22
36 | G9A U10A U11G | 2.38
37 | G9A U10G C12U C13U | 1.05
38 | G9A U10G C12U C13G | 1.35
39 | G9A U10G C12U C13A | 1.37
40 | G9C U10C U11G C12U C13U | 1.06
41 | G9C U10C U11G C12U C13A | 1.04
42 | G9C U10C U11G C12U C13G | 1.05

Row | Variant | aptazyme ON/OFF ratio
43 | G9C U10C U11G C12A C13A | 1.04
44 | G9C U10C U11G C12A C13U | 1.02
45 | G9C U10C U11G C12A C13G | 1.03
46 | G9A U10G C12A | 1.53
47 | G9A U10G C12U | 1.82
48 | G9A U10G C12G | 1.24
49 | G9C C12G C13G | 1.14
50 | G9C C12G C13U | 1.26
51 | G9C C12G C13A | 1.28
52 | G9A U11G C12U | 2.06
53 | G9A U11G C12A | 1.1
54 | G9A U11G C12G | 1.3
55 | G9C U10A U11C C12A C13G | 1.18
56 | G9C U10A U11C C12A C13A | 1.3
57 | G9C U10A U11C C12A C13U | 1.29
58 | G9C C12U C13A | 1.14
59 | G9C C12U C13U | 1.31
60 | G9C C12U C13G | 1.04
61 | G9C U10A C12A C13U | 1.23
62 | G9C U10A C12A C13G | 1.16
63 | G9C U10A C12A C13A | 1.21

Row | Variant | aptazyme ON/OFF ratio
64 | G9A U11C C13A | 1.03
65 | G9A U11C C13U | 1.11
66 | G9A U11C C13G | 1.11
67 | G9C U10C U11C C12G C13U | 1.04
68 | G9C U10C U11C C12G C13G | 1.05
69 | G9C U10C U11C C12G C13A | 1.08
70 | G9A U11G C12G C13A | 1.18
71 | G9A U11G C12G C13U | 1.15
72 | G9A U11G C12G C13G | 1.3
73 | G9A U10C U11G C12A | 1.03
74 | G9A U10C U11G C12U | 1.52
75 | G9A U10C U11G C12G | 1.18
76 | G9C U10A U11G C13G | 1.09
77 | G9C U10A U11G C13U | 1.35
78 | G9C U10A U11G C13A | 1.21
79 | G9C U10C U11G C12G C13U | 1.11
80 | G9C U10C U11G C12G C13A | 1.04
81 | G9C U10C U11G C12G C13G | 1.13
82 | G9A U10C U11C C12A C13A | 1.12
83 | G9A U10C U11C C12A C13U | 1.3
84 | G9A U10C U11C C12A C13G | 1.18
